US20260234660A1, “TREATMENT OF MUSCLE RELATED DISORDERS WITH ANTI-HUMAN CACNG1 ANTIBODIES” (Regeneron Pharmaceuticals, Inc., priority 2023, published 2026)

Columns and labels:
[1] = target: human CACNG1, cell surface-expressed (human) (UniProt Q06432)
[2] = target: human CACNG1, cell surface-expressed (human) (UniProt Q06432); remark: listed apart in the source
[3] = target: human CACNG1, cell surface-expressed (human) (UniProt Q06432); remark: listed apart in the source

human CACNG1, cell surface-expressed (human), sequence (Q06432 whole entry): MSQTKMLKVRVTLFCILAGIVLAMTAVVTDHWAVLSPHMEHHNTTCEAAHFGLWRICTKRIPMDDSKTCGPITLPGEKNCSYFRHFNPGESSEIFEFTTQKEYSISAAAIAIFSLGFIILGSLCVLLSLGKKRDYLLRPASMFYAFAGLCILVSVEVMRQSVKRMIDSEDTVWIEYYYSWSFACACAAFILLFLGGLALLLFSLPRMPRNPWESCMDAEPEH

B1: REGN14571-M3004 (antibody, from a related filing, V domains shown, part only)
VH: QVQLQESGPGLVKPSETLSLTCTVSGDSINNYYWTWLRQPPGKGLEWIGYIYYSGSANYNPSLKSRVTISVDTSKNQFSLKLNSVTAADTAVYYCARGAVKYFRHWGQGTLVTVSS
VL: EIVLTQSPGTLSLSPGERATLSCRASQTINHNNLAWYQQRPGQAPRLLIYGASNRATAIPDRFSGSGSGTDFTLTISRLEPEDFEVYSCQQYGSLPLTFGGGTKVEIKR
- EC50; androgen receptor luciferase reporter (RLU), hCACNG1.AR.Luc LNCaP cells, 24 hours [1]: 7.83 nM
- EC50; androgen receptor luciferase reporter (RLU), hCACNG1.AR.Luc LNCaP cells, 48 hours [2]: 6.95 nM
- EC50; androgen receptor luciferase reporter (RLU), hCACNG1.AR.Luc LNCaP cells, 72 hours [3]: 5.44 nM
